According to patent US6475717:

Columns and labels:
human IL-7 (human) = target: T1, human IL-7 (human) (UniProt P13232); experiment: control in IL-4R/Fc sandwich ELISA; hu IL-7 at 50 ng/ml
T1 sequence (looked up): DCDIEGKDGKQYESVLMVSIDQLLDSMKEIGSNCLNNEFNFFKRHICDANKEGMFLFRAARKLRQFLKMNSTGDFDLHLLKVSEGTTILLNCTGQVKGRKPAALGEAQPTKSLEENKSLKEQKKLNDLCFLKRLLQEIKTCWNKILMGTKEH

[1] = target: T2, murine recombinant IL-4 (Immunex, Lot 2871-023) (murine) (UniProt P07750); experiment: control in IL-4R/Fc sandwich ELISA; mu IL-4 at 50 ng/ml
T2 sequence (looked up): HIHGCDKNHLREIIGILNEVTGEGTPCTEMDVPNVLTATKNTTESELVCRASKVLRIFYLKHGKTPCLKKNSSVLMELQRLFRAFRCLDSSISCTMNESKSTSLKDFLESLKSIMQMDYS

human IL-2 (human) = human IL-2 (human) (UniProt P60568); experiment: control in IL-4R/Fc sandwich ELISA; hu IL-2 at 5000 IU/ml
human IL-6 (human) = human IL-6 (human) (UniProt P05231); experiment: control in IL-4R/Fc sandwich ELISA; hu IL-6 at 5000 IU/ml
human IL-1-alpha (human) = target: T3, human IL-1-alpha (human) (UniProt P01583); experiment: control in IL-4R/Fc sandwich ELISA; hu IL-1 α at 7.5 ng/ml
T3 sequence (looked up): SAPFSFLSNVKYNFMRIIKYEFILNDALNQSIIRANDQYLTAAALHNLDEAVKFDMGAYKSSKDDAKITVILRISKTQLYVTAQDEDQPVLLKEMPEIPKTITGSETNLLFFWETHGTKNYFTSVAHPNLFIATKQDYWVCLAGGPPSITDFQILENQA

human IL-1-beta (human) = human IL-1-beta (human) (UniProt P01584); experiment: control in IL-4R/Fc sandwich ELISA; hu IL-1 β at 16.6 ng/ml
human TNF-alpha (human) [2] = target: human TNF-alpha (human) (UniProt P01375); experiment: control in IL-4R/Fc sandwich ELISA; hu-TNF α (Immunex) at 50 ng/ml
human TNF-alpha (human) [3] = target: human TNF-alpha (human) (UniProt P01375); experiment: control in IL-4R/Fc sandwich ELISA; hu-TNF α as printed (Genzyme B1089) at 50 ng/ml
[4] = target: human recombinant IL-4 (Immunex, Lot 1898-022) (human) (UniProt P05112); experiment: control in mu IL-4R/Fc sandwich ELISA; hu IL-4 at 50 ng/ml
[5] = target: T4, murine IL-1-beta (murine) (UniProt P10749); experiment: control in mu IL-4R/Fc sandwich ELISA; mu IL-1 β at 10 ng/ml
T4 sequence (looked up): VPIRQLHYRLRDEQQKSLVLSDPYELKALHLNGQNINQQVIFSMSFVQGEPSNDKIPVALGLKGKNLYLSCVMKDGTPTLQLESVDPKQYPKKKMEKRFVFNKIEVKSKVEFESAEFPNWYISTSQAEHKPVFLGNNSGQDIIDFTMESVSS

[6] = target: murine TNF-alpha (murine) (UniProt P06804); experiment: control in mu IL-4R/Fc sandwich ELISA; mu-TNF α at 100 ng/ml
[7] = target: T5, murine IL-1-alpha (murine) (UniProt P01582); experiment: control in mu IL-4R/Fc sandwich ELISA; mu IL-1 α at 100 IU/ml
T5 sequence (looked up): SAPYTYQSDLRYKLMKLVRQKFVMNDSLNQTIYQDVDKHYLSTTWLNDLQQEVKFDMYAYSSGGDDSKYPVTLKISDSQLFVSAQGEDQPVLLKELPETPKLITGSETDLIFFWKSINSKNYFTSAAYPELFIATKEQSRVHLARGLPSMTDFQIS

Measured: concentration determined from the extinction

UniProt P01375, sequence (P01375 77-233 limits assumed): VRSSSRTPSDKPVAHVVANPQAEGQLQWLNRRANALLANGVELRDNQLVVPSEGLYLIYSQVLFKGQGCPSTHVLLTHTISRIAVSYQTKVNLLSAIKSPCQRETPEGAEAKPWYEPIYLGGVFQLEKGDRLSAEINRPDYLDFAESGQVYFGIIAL
UniProt P60568, sequence (P60568 21-153 limits assumed): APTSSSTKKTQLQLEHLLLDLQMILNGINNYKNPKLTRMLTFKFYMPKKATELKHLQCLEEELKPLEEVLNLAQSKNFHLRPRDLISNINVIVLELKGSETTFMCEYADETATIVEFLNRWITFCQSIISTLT
UniProt P06804, sequence (P06804 80-235 limits assumed): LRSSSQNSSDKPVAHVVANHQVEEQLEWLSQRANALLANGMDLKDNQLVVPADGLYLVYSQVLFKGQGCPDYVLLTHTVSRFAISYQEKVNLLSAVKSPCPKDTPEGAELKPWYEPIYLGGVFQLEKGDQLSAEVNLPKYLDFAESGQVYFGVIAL
UniProt P01584, sequence (P01584 117-269 limits assumed): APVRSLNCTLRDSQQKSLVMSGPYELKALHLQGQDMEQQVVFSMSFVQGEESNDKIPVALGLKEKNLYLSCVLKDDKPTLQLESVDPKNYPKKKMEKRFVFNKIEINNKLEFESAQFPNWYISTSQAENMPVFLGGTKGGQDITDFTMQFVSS
UniProt P05231, sequence (P05231 30-212 limits assumed): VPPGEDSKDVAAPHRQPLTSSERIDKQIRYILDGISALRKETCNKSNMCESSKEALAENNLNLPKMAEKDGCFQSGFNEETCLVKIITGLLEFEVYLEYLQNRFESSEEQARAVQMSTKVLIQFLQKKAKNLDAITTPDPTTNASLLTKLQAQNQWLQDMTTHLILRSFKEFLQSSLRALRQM
UniProt P05112, sequence (P05112 25-153 limits assumed): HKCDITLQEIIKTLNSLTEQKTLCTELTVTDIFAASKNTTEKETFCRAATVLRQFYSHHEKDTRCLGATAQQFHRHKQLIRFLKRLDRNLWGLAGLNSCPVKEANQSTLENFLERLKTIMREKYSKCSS

human IL-4 receptor/immunoglobulin Fc fusion protein (from UniProt P24394 26-232)
< 31 pg/mL: human IL-7 (human) | [1] | human IL-2 (human) | human IL-6 (human) | human IL-1-alpha (human) | human IL-1-beta (human) | human TNF-alpha (human) [2] | human TNF-alpha (human) [3]

B1: murine IL-4 receptor/immunoglobulin Fc fusion protein (Fc fusion, UniProt P16382 26-233, looked up, not shown: small tags and cut ends)
chain: IKVLGEPTCFSDYIRTSTCEWFLDSAVDCSSQLCLHYRLMFFEFSENLTCIPRNSASTVCVCHMEMNRPVQSDRYQMELWAEHRQLWQGSFSPSGNVKPLAPDNLTLHTNVSDEWLLTWNNLYPSNNLLYKDLISMVNISREDNPAEFIVYNVTYKEPRLSFPINILMSGVYYTARVRVRSQILTGTWSEWSPSITWYNHFQLPLIQR
< 31 pg/mL: [4] | [5] | [6] | [7]
